These results are taken from US20170014527A1.

One may read the Kd as a measure of binding affinity in units of concentration. Lower therefore signals tighter binding.

Test [1] has as its target human Trop-2 (human) (UniProt P09758). Put plainly: cell binding on NCI-N87 cells, Bmax against murine RS7 as reference.
Test [2] shares this target. The test can be described thus: cell binding on NCI-N87 cells, anti-mouse-HRP, luminescence.
Test [3] shares this target. The test can be described thus: cell binding on NCI-N87 cells, 0.03 to 66 nM antibody, anti-mouse-HRP, luminescence.
Test [4] has the same target. The test can be described thus: cell binding assay, cell line not stated.
The target is the same in test [5]. Put plainly: cell-based or functional assay.

Chain of human Trop-2 (human) (P09758 27-323): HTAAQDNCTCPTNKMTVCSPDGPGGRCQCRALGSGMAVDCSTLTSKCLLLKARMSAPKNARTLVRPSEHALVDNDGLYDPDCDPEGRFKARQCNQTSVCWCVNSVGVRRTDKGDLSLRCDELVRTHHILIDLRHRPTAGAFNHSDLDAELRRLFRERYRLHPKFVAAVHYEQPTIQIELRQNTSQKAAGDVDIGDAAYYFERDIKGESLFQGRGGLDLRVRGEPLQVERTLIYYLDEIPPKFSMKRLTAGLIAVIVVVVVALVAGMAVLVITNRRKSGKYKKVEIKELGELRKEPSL

The substance “MAB650 murine monoclonal antibody against human Trop-2 (R&D Systems)” showed a reduction of maximum binding (Bmax) compared to RS7 in test [1] of 50%. This substance displayed a maximum binding (Bmax) (relative luminescent units) in test [2] of 6020. In test [3], this substance returned an equilibrium dissociation constant (Kd) of 0.49 nM.

Take “hRS7-CL2A-SN-38 (hRS7 IgG conjugated to SN-38 by the CL2A linker) (antibody)”: the Kd in test [4] worked out at 1.2 nM.

In turn, “162-46.2 murine monoclonal antibody against human Trop-2” returned a reduction of maximum binding (Bmax) compared to RS7 in test [1] of 25%. This substance displayed a maximum binding (Bmax) (relative luminescent units) in test [2] of 8470. This substance also displayed a Kd in test [3] of 0.52 nM.

Substance “hRS7-CL2-SN-38 (hRS7 IgG conjugated to SN-38 by the CL2 linker) (antibody)” yielded a Kd in test [4] of 1.2 nM.

On to “humanized RS7 (hRS7) anti-Trop-2 antibody, unconjugated IgG”, for which the ADCC, specific lysis of BxPC-3 cells by PBMCs (effector to target 100:1, antibody 33.3 nM) in test [5] turned out to be 8.5%.
